Measurements taken from PMC8213705.

Assays:
[1] = target: Microtubule polymerized from MAP-free bovine brain tubulin (GMPCPP- and taxol-stabilized, with biotinylated ends) (bovine) (UniProt Q6B856); experiment: optical trapping (single-filament interaction forces); pure CB; microtubule turned by 45°, IF moved vertically; 49 filament pairs
[2] = target: Microtubule polymerized from MAP-free bovine brain tubulin (GMPCPP- and taxol-stabilized, with biotinylated ends) (bovine) (UniProt Q6B856); experiment: optical trapping (single-filament interaction forces); as a1 (perpendicular, vertical movement) in CB with 0.1% (w/v) Triton-X 100; 38 filament pairs
[3] = target: Microtubule polymerized from MAP-free bovine brain tubulin (GMPCPP- and taxol-stabilized, with biotinylated ends) (bovine) (UniProt Q6B856); experiment: optical trapping (single-filament interaction forces); as a1 (perpendicular, vertical movement) in CB with a total of 20 mM magnesium (18 mM MgCl2 added); 36 filament pairs
[4] = target: Microtubule polymerized from MAP-free bovine brain tubulin (GMPCPP- and taxol-stabilized, with biotinylated ends) (bovine) (UniProt Q6B856); experiment: optical trapping (single-filament interaction forces); pure CB; perpendicular configuration, IF moved horizontally (x-direction) along the microtubule at 0.55 μm/s; 43 filament pairs
[5] = target: Microtubule polymerized from MAP-free bovine brain tubulin (GMPCPP- and taxol-stabilized, with biotinylated ends) (bovine) (UniProt Q6B856); experiment: optical trapping (single-filament interaction forces); one vimentin IF and one microtubule each held between a pair of streptavidin beads; crossed perpendicularly, IF moved vertically (y-direction) at 0.55 μm/s; pure CB (1 mM EGTA, 2 mM MgCl2, 25 mM PIPES, 60 mM KCl, 2 mM sodium phosphate, pH 7.5, 0.01 mM taxol, oxygen scavenger, 20 mM DTT); 57 filament pairs

Chain of UniProt Q6B856 (Q6B856 whole entry, looked up): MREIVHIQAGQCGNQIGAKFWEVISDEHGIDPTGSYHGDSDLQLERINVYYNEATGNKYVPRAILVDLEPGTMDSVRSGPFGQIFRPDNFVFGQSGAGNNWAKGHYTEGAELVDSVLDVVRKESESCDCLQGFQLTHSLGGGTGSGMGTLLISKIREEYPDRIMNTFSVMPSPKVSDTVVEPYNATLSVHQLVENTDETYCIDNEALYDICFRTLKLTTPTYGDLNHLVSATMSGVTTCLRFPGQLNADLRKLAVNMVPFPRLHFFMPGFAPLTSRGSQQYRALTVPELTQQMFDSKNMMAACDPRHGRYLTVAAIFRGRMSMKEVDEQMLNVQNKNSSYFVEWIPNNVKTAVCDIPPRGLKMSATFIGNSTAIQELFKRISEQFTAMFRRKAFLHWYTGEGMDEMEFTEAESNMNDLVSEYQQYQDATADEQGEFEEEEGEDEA

Vimentin intermediate filament, assembled from vimentin C328N with two additional glycines and one additional cysteine at the C-terminus (natural protein)
effective binding rate r b,eff (interactions larger than 1 pN per unbound time) [1]: 0.016 s⁻¹ | effective binding rate r b,eff (interactions larger than 1 pN per unbound time) [2]: 0.0056 s⁻¹ | effective binding rate r b,eff (interactions larger than 1 pN per unbound time) [3]: 0.013 s⁻¹ | effective binding rate r b,eff (interactions larger than 1 pN per unbound time) [4]: 0.024 s⁻¹ | effective binding rate r b,eff (interactions larger than 1 pN per unbound time) [5]: 0.011 s⁻¹ | probability of binding p IF-MT per pair of vimentin unit-length filament and tubulin dimer ([5]; scale: per pair of vimentin unit-length filament and tubulin dimer): 0.00061
